The target of one test is T1, murine FAP (mouse, UniProt P97321 27-761).
T1 construct: also called mouse FAP
The test can be described thus: SPR simultaneous binding, figure legend (FIG. 2C). The protocol: The capacity of binding simultaneously murine 4-1BB Fc(kih) and murine FAP was assessed by surface plasmon resonance (SPR) in the manner as described in WO 2016/075278 A1. All SPR experiments were performed on a Biacore T200 at 25° C. with HBS-EP as running buffer (0.01 M HEPES pH 7.4, 0.15 M NaCl, 3 mM EDTA, 0.005% Surfactant P20, Biacore, Freiburg/Germany). Biotinylated murine 4-1BB Fc(kih) was directly coupled to a flow cell of a streptavidin (SA) sensor chip. Immobilization levels up to 600 resonance units (RU) were used.
The FAP-targeted 4-1BB constructs were passed at a concentration range of 200 nM with a flow of 30 μL/minute through the flow cells over 90 seconds and dissociation was set to zero sec. Murine FAP was injected as second analyte with a flow of 30 μL/minute through the flow cells over 90 seconds at a concentration of 500 nM. The dissociation was monitored for 120 sec. Bulk refractive index differences were corrected for by subtracting the response obtained in a reference flow cell, where no protein was immobilized.

Test [1] deals with T2, biotinylated murine 4-1BB Fc(kih) (murine, UniProt P20334 24-187, biotinylated).
T2 construct: also called immobilized murine 4-1BB
T2 sequence: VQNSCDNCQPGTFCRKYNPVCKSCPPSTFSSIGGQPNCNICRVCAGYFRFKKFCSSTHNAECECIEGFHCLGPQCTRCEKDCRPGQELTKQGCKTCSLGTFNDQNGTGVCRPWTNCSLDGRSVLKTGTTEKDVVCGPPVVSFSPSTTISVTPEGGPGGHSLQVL
Nature of the test: SPR (Biacore T200, 25 C): biotinylated murine 4-1BB Fc(kih) on SA chip, construct at 200 nM as first analyte, murine FAP at 500 nM as second analyte.

T1 sequence (P97321 27-761 limits assumed): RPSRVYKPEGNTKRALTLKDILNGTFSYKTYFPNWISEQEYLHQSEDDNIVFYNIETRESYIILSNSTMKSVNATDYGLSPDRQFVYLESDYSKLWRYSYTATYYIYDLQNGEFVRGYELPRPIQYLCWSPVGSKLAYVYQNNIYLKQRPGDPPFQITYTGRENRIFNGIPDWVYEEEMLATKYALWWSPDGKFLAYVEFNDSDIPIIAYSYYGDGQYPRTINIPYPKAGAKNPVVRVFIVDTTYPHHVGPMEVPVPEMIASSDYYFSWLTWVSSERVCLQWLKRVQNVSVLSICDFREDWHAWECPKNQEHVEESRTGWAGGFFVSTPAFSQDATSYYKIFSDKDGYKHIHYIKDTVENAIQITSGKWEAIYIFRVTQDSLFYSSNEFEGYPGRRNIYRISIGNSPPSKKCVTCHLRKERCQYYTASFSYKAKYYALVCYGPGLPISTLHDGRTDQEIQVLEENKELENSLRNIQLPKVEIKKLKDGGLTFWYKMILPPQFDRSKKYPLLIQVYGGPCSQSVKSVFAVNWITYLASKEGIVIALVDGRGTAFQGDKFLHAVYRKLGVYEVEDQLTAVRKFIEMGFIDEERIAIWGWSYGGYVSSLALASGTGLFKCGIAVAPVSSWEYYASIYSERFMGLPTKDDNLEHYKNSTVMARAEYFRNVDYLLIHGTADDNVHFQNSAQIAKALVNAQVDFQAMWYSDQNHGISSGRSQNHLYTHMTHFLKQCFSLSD

B1: 4-1BB (MU137-1)/FAP(28H1) DAPG IgG1 2+1 (Fc-DD-VL), named muFAP-4-1BB (bispecific antibody)
heavy 1: DVQLVESGGGLVQPGRSLKLSCAASGFIFSYFDMAWVRQAPTKGLEWVASISPSGDIPYYRDSVKGRFTVSRENAKSSLYLQMDSLRSEDTATYYCARRSYGGYSELDYWGQGVMVTVSSAKTTPPSVYPLAPGSAAQTNSMVTLGCLVKGYFPEPVTVTWNSGSLSSGVHTFPAVLQSDLYTLSSSVTVPSSTWPSQTVTCNVAHPASSTKVDKKIVPRDCGCKPCICTVPEVSSVFIFPPKPKDVLTITLTPKVTCVVVAISKDDPEVQFSWFVDDVEVHTAQTKPREEQINSTFRSVSELPIMHQDWLNGKEFKCRVNSAAFGAPIEKTISKTKGRPKAPQVYTIPPPKEQMAKDKVSLTCMITNFFPEDITVEWQWNGQPAENYDNTQPIMDTDGSYFVYSDLNVQKSNWEAGNTFTCSVLHEGLHNHHTEKSLSHSPGGGGGSGGGGSGGGGSGGGGSEIVLTQSPGTLSLSPGERATLSCRASQSVSRSYLAWYQQKPGQAPRLLIIGASTRATGIPDRFSGSGSGTDFTLTISRLEPEDFAVYYCQQGQVIPPTFGQGTKVEIK
heavy 2: DVQLVESGGGLVQPGRSLKLSCAASGFIFSYFDMAWVRQAPTKGLEWVASISPSGDIPYYRDSVKGRFTVSRENAKSSLYLQMDSLRSEDTATYYCARRSYGGYSELDYWGQGVMVTVSSAKTTPPSVYPLAPGSAAQTNSMVTLGCLVKGYFPEPVTVTWNSGSLSSGVHTFPAVLQSDLYTLSSSVTVPSSTWPSQTVTCNVAHPASSTKVDKKIVPRDCGCKPCICTVPEVSSVFIFPPKPKDVLTITLTPKVTCVVVAISKDDPEVQFSWFVDDVEVHTAQTKPREEQINSTFRSVSELPIMHQDWLNGKEFKCRVNSAAFGAPIEKTISKTKGRPKAPQVYTIPPPKKQMAKDKVSLTCMITNFFPEDITVEWQWNGQPAENYKNTQPIMKTDGSYFVYSKLNVQKSNWEAGNTFTCSVLHEGLHNHHTEKSLSHSPGGGGGSGGGGSGGGGSGGGGSEVQLLESGGGLVQPGGSLRLSCAASGFTFSSHAMSWVRQAPGKGLEWVSAIWASGEQYYADSVKGRFTISRDNSKNTLYLQMNSLRAEDTAVYYCAKGWLGNFDYWGQGTLVTVSS
light: DIQMTQSPASLSASLEEIVTITCQASQDIGNWLAWYHQKPGKSPQLLIYGTSSLADGVPSRFSGSSSGSQYSLKISRLQVEDIGIYYCLQAYGAPWTFGGGTKLELKRADAAPTVSIFPPSSEQLTSGGASVVCFLNNFYPKDINVKWKIDGSERQNGVLNSWTDQDSKDSTYSMSSTLTLTKDEYERHNSYTCEATHKTSTSPIVKSFNRNEC
notes: Mouse IgG1 DAPG (D265A, P329G) with DDKK heterodimerisation; It has two anti-mouse-4-1BB Fabs (MU137-1) and one anti-FAP (28H1) VH/VL fused to the Fc C-termini; also called mouse surrogate muFAP-4-1BB; murine bispecific FAP-4-1BB antibody
With B1, the binding result (with murine FAP; in test [1]) was “binds” throughout.

The record behind these values is patent US20210095002A1 (Hoffmann-La Roche, published 2021).
